Data as given in the nanobody polyreactivity screen of Harvey et al. (2022).

Assay: yeast display, Sf9 membrane polyspecificity reagent, FACS + sequencing; frameworks hold sequencing errors
In short: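 Polyreactivity labels are assigned by the sorting gate from which each nanobody was recovered. The gates were low and high (top ~1%), set on anti-HA fluorescence for expression and streptavidin fluorescence for reagent binding. Before sorting, galactose-induced (36–48 hours) yeast display cells were stained for 1 hour at 4 °C with 10% biotinylated, detergent-solubilized Sf9 membrane reagent.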

Row | Sequence | polyreactivity (PSR sort gate)
1 | QVQLVESGGGLVPAGGSLRLSCAASGSTFPGYAMGWYRQAPGQERELVAAISTSGGRTYYADSVKGRFTISRDNAKNTVYLQMNSLKPEDTAVYYCARVAFYVAHGGFAFGRYYYWGQGTQVTVSS | low polyreactivity
2 | QVQLVESGGGLVPARGSLRLSCAASGFTFYRYAMGCYRQAPGKERELVAAITSRSGITYYADSVKGRFTISRDNAKNTVYLQMNSLKPEDTAVYYCAAYVYRSTEFDYGYWGQGTQVTVSS | high polyreactivity
3 | QVQLVESGGGLVPARGSLRLSCAASGIILRGYAMGWYRQSPGKERELVAAITYRGSSTYYADSVKGSFTISRDNAKNTVYLQMNSLKPEDTAVYYCGADRWLYAVITAGGGYWGQGTQVTVSS | high polyreactivity
4 | QVQLVESGGGLVQAAASLRLSCPASGSTFRFYTMALYIQSPGTESDLVAAITRRGGITFYSDSVKWRFTISRDNAKNTVYLHMNSLKPEDTAVYDCAARFAYWGQDYYFWGQGSQVTVSS | high polyreactivity
5 | QVQLVESGGGLVQAAGSLPLSCAASGSTLLNYAMGWYRQAPGKQSQLVAAISSSGGRTYYADSVKGRFTISRDNAKNTVYLQMNSLKPEDTAVYYCNKGLGYPKTFGYWGQGTQVTVSS | high polyreactivity
6 | QVQLVESGGGLVQAAGSLRFSWAASRSIFRQYGMGWYRQAHGKERELVARISRRSGTTYYADSVKGRFTISRDYAKNTVYLQMNSLKPEDSAVSYCAAVPGWIHVDYWGQGTQVTVSS | high polyreactivity
7 | QVQLVESGGGLVQAAGSLRLSCAASGLPSVDAMGWYRQAPGKERELVAAISLTGSSTYYADSVKGRFTISRDNAKNTVYLQRNSLKPEDTAVYYCAADSSYTPNDDNWGQGTQVTVSS | low polyreactivity
8 | QVQLVESGGGLVQAAGSLRLSCAASGRISRTNAMGWYRQAPGKERQLVATINSGTGTNYADSVKGRFTISRDNAKNTVYLQMNSLKPEDTEVYYCAARYRYWPKYYPVSYRYDYWGQGTQVTVSS | low polyreactivity
9 | QVQLVESGGGLVQAAGSLRLSCAASGRTFYRNAMGWYRQAPGKERELVAAISQSGGSTYYADSVKGRFTISRDNAKNTVYLQMNSLKPEDTAVYYWAAGNSRRVGMDYWGQGTQVTVSS | high polyreactivity
10 | QVQLVESGGGLVQAAGSLRLSCAASGSIFRPYAMGWYRQAPGKERELVATITSRGGSTYYADSVKGRFTISRDNAKNTVYLQMNSMKPEDTAVYYCAARYISSYGRTQDYSRYDYWGQGTQVNVSS | high polyreactivity
11 | QVQLVESGGGLVQAAGSLRLSCAASGSIFVSYAMGWYRPAPWKEREFVATINYSGGSSYYADSVKGRFTISRDNAKNTVYLQMNSLKPEDTAVYYCAARPYHHGYWLNYGYWGQGTQVTVSS | high polyreactivity
12 | QVQLVESGGGLVQAAGSLRLSCAASGSTFTLNAMGWNRQAPGKERELVAAITSGGRTKYADSVKGRFTISRDNAKNTVYLQMNSLKPEDTAVYYCAATFAGGYGYWGQGTQVTVSS | high polyreactivity
13 | QVQLVESGGGLVQAGASLRLSCAASGFIFGKYAMGWYRQAPGKERELVAAISSSGGSTYYADSVKGRFTISRDTAKNTVYLQMNSLKPEDTAGYYCNAKVRGTNTAGVDYWGQGTQVTVSS | high polyreactivity
14 | QVQLVESGGGLVQAGASLRLSCAASGFIYSFNTMGWYRQAPGKERELVAAITSGGSTNYADSVKGRFTISRDNAKNTVYLQMNSLKPEDTAVYYCNRQYYSYYGNDYWGQGTQVTVSS | high polyreactivity
15 | QVQLVESGGGLVQAGASLRLSCAASGFTFVHYALGWYRQAPGKERELVAAITWNGGRTYYADSVQGRFTISRDNAKNTVYFQMNSLKPEDTAVYYCNAVRITYGRYDLDYWGQGTQVTVSS | high polyreactivity
16 | QVQLVESGGGLVQAGASLRLSCAASGGTFLIYGRGWYRQAPGKERELVAAISRSGGSTYYADSVKGRFTISRDNAKNTVYLQMNSLKPEDTAVYYCAADSGYLSPYDYWGQGTQVTVSS | low polyreactivity
17 | QVQLVESGGGLVQAGASLRLSCAASGIIFPRYAMGWSRQAPGKERDLVAAISYSGGSTYYADSVKGRFTISRDNAKNTVYLQMNSLKPEDPAVYYCAAKWGWKVGYSYYYWGQGTQVTVSS | high polyreactivity
18 | QVQLVESGGGLVQAGASLRLSCAASGITFYSYGMGWYRQAPGKERELVAAISGSGTTTYADSVKGRFTISRDNAKNPVYLQMNSLKPEDTAVYYCAAVARYPRWHHYYWGQGTQVTVSS | low polyreactivity
19 | QVQLVESGGGLVQAGASLRLSCAASGLTYSHYAMGWYRQAPGKERQLVAGISSRGGNTYYADSVKGRFTISRDNAKNTVYLQMNSLKPEDTAVYYCNAPKPKRAYDYWGQGTQVTVSS | high polyreactivity
20 | QVQLVESGGGLVQAGASLRLSCAASGRTFGGYAMGWYRQAPGKERQLVAAISSSGTGTSYADSVKGRFTISRDNAKNTVYFEMNSLKPEDTAVYYCAARSSRTVLSIQDDDYWGQGTQVTVSS | low polyreactivity
21 | QVQLVESGGGLVQAGASLRLSCAASGRTFYRYAMGWYRQAPGKEREFVAAISNGGSNTRYADSVKGRFTISRDTAKNNVYFQMNSLKPEETAVYYCAARAYQHYNWGQGTQVTVSS | high polyreactivity
22 | QVQLVESGGGLVQAGASLRLSCAASGSIFGGYAMGWYRQAPGKERELVAAISRSGRTNYADSVKGRFTISRDNAKNTVYLQMNSLKPEDTAVYYCAVDKRYGRVVGRDYDYWGQGTQVTVSS | high polyreactivity

Row | Sequence | polyreactivity (PSR sort gate)
23 | QVQLVESGGGLVQAGASLRLSCAASGSISKSYAMGWYRQAPGKERELVAAISWRGGSTYADSVKGRFTISRDNAKNTVYLQMNSLKPEDTAVYYCAATNYGTFWGGQSERYDYWGQGTQLTVSS | low polyreactivity
24 | QVQLVESGGGLVQAGASLRLSCAASGSNSKSYAMGWYRPAPGKERELVAAISWRGGSTYADSVKGRFTNSRDNAKNTVYFQMNSQKPVDTAVYYWAATNYGTFWGGQSERYDYWGQGTQVTVSS | low polyreactivity
25 | QVQLVESGGGLVQAGASLRLSCAASGSTFDRNVMGWYRQAPGKERELVAAISRVSSTNYADSVKGRFTISRDNAKNTVYLQMNSLKPEDTAVYYCAADRAGSIMNYWGQGTQVTVSS | low polyreactivity
26 | QVQLVESGGGLVQAGASLRLSCAASGSTFGSYTMGWYRQAPWKERELVAAINWTGGNTYYADSVKGRFTISRDYAKNTVYLQMNSLKPEDTAVYYCAAAFYIYGVEGDYWGQGTQVTVSS | low polyreactivity
27 | QVQLVESGGGLVQAGASLRLSCAASGSTFKYYTMGWYRQAPGKERELVAAISFSGARTYYADSVKGRFTISRDNAKNTVYLQMNSLKPEDTAVYYCAKDRQYYYWGQGTQVTVSS | high polyreactivity
28 | QVQLVESGGGLVQAGASLRLSCAASGYIYPKYGMGWYIQAPGKERELVAAITGSGGSTYYADSVMGRITISRDNAKNTVYLHMNSLKPEDTAVYYCAKRSWIEYDYWGQGTQVTVSS | low polyreactivity
29 | QVQLVESGGGLVQAGASLRLSCAASVIIFKIYAMGWYRQAPGKERELVAAITRSGTRTYYADSVKGRFTISRDNAKNTVYLQMNSLKPEDTAVYYCNAYTTLAYDLDYWGQGTQVTVSS | high polyreactivity
30 | QVQLVESGGGLVQAGASLSLSCAASGRTFGGNAMGWYRQAPGKEREFVAAISRSGTSTYYADSVKGRFTISRDNAKNTVYFQMNSLKPEATAVYYCAALNYLKFAHKYDYWGQGTQVTVSS | low polyreactivity
31 | QVQLVESGGGLVQAGCILRLSCASSGIIFSYAMGWYRQAPGKESELVAAISGRDGSTYYADSVKGRFTISRDNAKNTVYLQMNSLKPEDTAVYYCAKRISYLPVEMDYWGHGTQVTVSS | low polyreactivity
32 | QVQLVESGGGLVQAGCRLRLSCAASGRTFFPYAMGWYRQAPGKERELVAAITTGDITNYADSVKGRFTISRDNAKNTVYLQMNSLKPEDTAVYYCAARGYASWSYGGYPLKLDYWGQGTQVTVSS | low polyreactivity
33 | QVQLVESGGGLVQAGCSLRISCADSGRTFDEYAMGWYRQAPGKERELVAAISGSAGSTYYADSVKGRFTISRDNAKNSVYLQMNSLKPEDTAVYYCNAEVYGELYYWGQGTQVTVSS | low polyreactivity
34 | QVQLVESGGGLVQAGCSLRLICAASGIIFRRYAMGWYRQAPGKERELVAAISSSGGSTYYADSVKGRFTISRDNAKNTVYLQMNSLKPEDTAVYYCNAVTSVQARPRNYYYWGQGTQVTVSS | high polyreactivity
35 | QVQLVESGGGLVQAGCSLRLICAASGYIFVIYAMGWNRQAPGKERELVAAISSSGAGTYYADSVKGRFTISRDNAKNTVYLQMNSLKPEDTAVYYCAASESAVFDGYDYWGQGTQVTVSS | high polyreactivity
36 | QVQLVESGGGLVQAGCSLRLIFAASGSIFIGYAMGWYRQAPGKERELVATITNGGSTYYADSVKGRFTISRDNAKNTVYLQMNSLKPEDSAVYYCNKPTYQWGQGTQVTVSS | high polyreactivity
37 | QVQLVESGGGLVQAGCSLRLSCAASGFIFTTYAMGWYRQEPGKERELVAAISGRGGTTYYADSVKGRFTISLDTAKNTVYLQMNSLKPEDTAVYYCAADGYPGDDYWGQGTQVTVSS | high polyreactivity
38 | QVQLVESGGGLVQAGCSLRLSCAASGFIFYWYAMVWKRQAPGKERELVAAISYDTGSTYYADSVKGRFTISRDKAKNSVYLPMNSLKPEDTAVYYCAADVYYKYYYWGQGSQVTVSS | high polyreactivity
39 | QVQLVESGGGLVQAGCSLRLSCAASGFTFLNNAMGWSRQAPGKEREMVAAISQSGTSTYYADSVKGRFTISRDNAKNTVYLQMNSLKPEDTAVYYCAAEDTYPHDYSGGLEYDYWGQGTQVTVSS | low polyreactivity
40 | QVQLVESGGGLVQAGCSLRLSCAASGFTFQHNAMGWYRQAPGKERELVAAISRGGSTNYADSVKGRFTISRDNAKNTVYLQMNSLKPEDTAVYYCAAYDWRVLWGYDYWGQGTQVTVSS | low polyreactivity
41 | QVQLVESGGGLVQAGCSLRLSCAASGGIFSAYVMGWYRQAPGKERELVAAITRRGGATYYADSVKGRFTISRDNAKNTVYLQMNSLKPEDTAVYYCAADDQYYTEYYYWGQGTQVTVSS | high polyreactivity
42 | QVQLVESGGGLVQAGCSLRLSCAASGIIFRSYAMGWYRQAPGKERELVAAITRSGGSTYADSVKGRFTISRDNAKNTVYLQMNSLKPEDTAVYYCAADRYSGWDYRRDYWGHGTQVTVSS | low polyreactivity
43 | QVQLVESGGGLVQAGCSLRLSCAASGITFANYAMGWYRPAPGKVRELVAAINWSGGITYADSVKGRFTISRDNAKNTVYLQMHSLKPEDTAVYYCNPYYPDYAKYDYWGQGTQVTVSS | low polyreactivity
